From article PMC12657241

Tests used:
[1] = biological target: OppA-iso, evolved OppA variant (E. coli) (UniProt P23843); assay: MST
[2] = biological target: wild-type OppA, periplasmic binding protein of the oligopeptide permease (Opp) ABC transporter (E. coli) (UniProt P23843); assay: MST

## SisoK, isopeptide-linked dipeptide (serine on the ε-amine of lysine)
[1]
  Kd: 300 µM
[2]
  Kd: 300 µM

## linear GSK tripeptide
[1]
  Kd: 275 µM
[2]
  Kd: 71 µM

## G-SisoK, isopeptide-linked tripeptide
[1]
  Kd: 37 µM
[2]
  Kd: 50 µM
